Measured values: patent US20260232732A1 (FUNDACI INSTITUT DE RECERCA CONTRA LA LEUC MIA JOSEP …, published 2026)
Where no end group is shown, it is not given here. The star is where a group is joined. Biotin = O=C1N[C@H]2[C@H](CS[C@H]2CCCCC(=O)*)N1

Tests used:
[1] = target: T1, Peptide 4-BSA (SMEDYVNFNF-C conjugated to BSA) (human); assay: ELISA; Ab 0.25 ug/mL; repII
T1 peptide: SMEDYVNFNFC(BSA)
Protocol: (§1) In brief, plates with each non-conjugated peptide (50 μg/mL) or BSA-conjugated peptide (5 μg/mL) were coated in 0.58M carbonate-bicarbonate buffer pH9.5, 100 μL/well, at 4° C. […] After washing, wells were incubated with the 3, 3′,5,5′-Tetramethylbenzidine (TMB) HRP substrate and reactions were stopped with 2M HCl and OD450 was recorded.

[2] = target: T2, Peptide 3, non-conjugated (SSMEDYVNFN-C) (human); assay: ELISA; Ab 0.25 ug/mL; repII
T2 construct: With the extra C-terminal Cys
T2 peptide: SSMEDYVNFNC
Protocol: as §1

[3] = target: T3, Peptide 1-BSA (MADDYGSEST-C conjugated to BSA) (human); assay: ELISA; Ab 0.25 ug/mL; repII
T3 peptide: MADDYGSESTC(BSA)
Protocol: as §1

[4] = target: T4, Peptide 2-BSA (GSESTSSMED-C conjugated to BSA) (human); assay: ELISA; Ab 0.25 ug/mL; repII
T4 peptide: GSESTSSMEDC(BSA)
Protocol: as §1

[5] = target: T5, antigen peptide-BSA (immunisation peptide #1 MADDYGSESTSSMEDYVNFNF-C conjugated to BSA) (human, extra C-terminal Cys conjugated to BSA); assay: ELISA; Ab 0.25 ug/mL; repII
T5 construct: also called Positive control antigen peptide-BSA; MADDY peptide
T5 peptide: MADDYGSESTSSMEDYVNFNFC
Protocol: as §1

[6] = target: T6, Peptide 1, non-conjugated (MADDYGSEST-C) (human); assay: ELISA; Ab 0.25 ug/mL; repII
T6 construct: With the extra C-terminal Cys
T6 peptide: MADDYGSESTC
Protocol: as §1

[7] = target: T7, Peptide 3-BSA (SSMEDYVNFN-C conjugated to BSA) (human); assay: ELISA; Ab 0.25 ug/mL; repII
T7 peptide: SSMEDYVNFNC(BSA)
Protocol: as §1

[8] = target: T8, Peptide 2, non-conjugated (GSESTSSMED-C) (human); assay: ELISA; Ab 0.25 ug/mL; repII
T8 construct: With the extra C-terminal Cys
T8 peptide: GSESTSSMEDC
Protocol: as §1

[9] = target: T7, Peptide 3-BSA (SSMEDYVNFN-C conjugated …); assay: ELISA; Ab 1 ug/mL; repII
Protocol: as §1

[10] = target: T8, Peptide 2, non-conjugated (GSESTSSMED-C); assay: ELISA; Ab 1 ug/mL; repII
Protocol: as §1

[11] = target: T6, Peptide 1, non-conjugated (MADDYGSEST-C); assay: ELISA, non-conjugated peptide coated
Protocol: as §1

[12] = target: T8, Peptide 2, non-conjugated (GSESTSSMED-C); assay: ELISA, non-conjugated peptide coated
Protocol: as §1

[13] = target: T1, Peptide 4-BSA (SMEDYVNFNF-C conjugated …); assay: ELISA; Ab 1 ug/mL; repI
Protocol: as §1

[14] = target: T2, Peptide 3, non-conjugated (SSMEDYVNFN-C); assay: ELISA; Ab 1 ug/mL; repI
Protocol: as §1

[15] = target: T3, Peptide 1-BSA (MADDYGSEST-C conjugated …); assay: ELISA; Ab 1 ug/mL; repI
Protocol: as §1

[16] = target: T9, BSA (negative control coating) (bovine, UniProt P02769 25-607); assay: ELISA; Ab 1 ug/mL; repI
T9 construct: also called Negative control BSA
Protocol: as §1

[17] = target: T4, Peptide 2-BSA (GSESTSSMED-C conjugated …); assay: ELISA; Ab 1 ug/mL; repI
Protocol: as §1

[18] = target: T10, Peptide 4, non-conjugated (SMEDYVNFNF-C) (human); assay: ELISA; Ab 1 ug/mL; repI
T10 construct: With the extra C-terminal Cys
T10 peptide: SMEDYVNFNFC
Protocol: as §1

[19] = target: T5, antigen peptide-BSA (immunisation …); assay: ELISA; Ab 1 ug/mL; repI
Protocol: as §1

[20] = target: T6, Peptide 1, non-conjugated (MADDYGSEST-C); assay: ELISA; Ab 1 ug/mL; repI
Protocol: as §1

[21] = target: T7, Peptide 3-BSA (SSMEDYVNFN-C conjugated …); assay: ELISA; Ab 1 ug/mL; repI
Protocol: as §1

[22] = target: T8, Peptide 2, non-conjugated (GSESTSSMED-C); assay: ELISA; Ab 1 ug/mL; repI
Protocol: as §1

[23] = target: T11, biotin-peptide SSMEDYVNFN (human); assay: ELISA biotin-peptide; scFv 1.25 ug/mL; repII
T11 peptide: Biotin-SSMEDYVNFN
Protocol: (§2) The peptides were synthesized naked or with a N-terminal Biotin modification with a purity of >98%. All four scFvs were verified by ELISA that can be detected with anti-His antibodies. ELISA was performed for scFv-peptide binding validation. Briefly, naked peptides were coated (50 μg/mL) in 0.58M carbonate-bicarbonate buffer pH9.5, 100 μL/well, 4° C. O/N. Then after blocking (3% BSA-PBS, 300 μL/well 37° C. 1.5 h) and washing (PBS+Tween-20 0.05% v/v (0.05% PBST), wells were incubated with each purified scFv antibody at concentration of 1 μg/mL in PBS at 37° C. 1 h. After washing (0.05% PBST), wells were incubated with secondary antibodies (goat anti-His IgG-HRP) in PBS, 37° C., 30 min. After washing, and incubation with TMB substrate, reactions were stopped with 2M HCl and reading was quantified at OD450.
(§3) ELISA with biotin-conjugated peptides (5 μg/mL) was performed very similar to described above with minor modifications.
(§4) A full curve ELISA was performed for each positive scFv/biotin-peptide pair in order to confirm previous results. Tables 15-17 show ELISA results of the dose-dependent full curve for each positive peptide with scFv “CCR9_HUM”, “Comp-2” and “Comp-3”, respectively.

[24] = target: T12, biotin-peptide MEDYVNFNFT (human); assay: ELISA biotin-peptide; scFv 1.25 ug/mL; repII
T12 peptide: Biotin-MEDYVNFNFT
Protocol: as §2, §3, §4

[25] = target: T13, biotin-peptide TSSMEDYVNF (human); assay: ELISA biotin-peptide; scFv 1.25 ug/mL; repII
T13 peptide: Biotin-TSSMEDYVNF
Protocol: as §2, §3, §4

[26] = target: T14, biotin-peptide SMEDYVNFNF (human); assay: ELISA biotin-peptide; scFv 1.25 ug/mL; repII
T14 peptide: Biotin-SMEDYVNFNF
Protocol: as §2, §3, §4

T9 sequence (P02769 25-607 limits assumed): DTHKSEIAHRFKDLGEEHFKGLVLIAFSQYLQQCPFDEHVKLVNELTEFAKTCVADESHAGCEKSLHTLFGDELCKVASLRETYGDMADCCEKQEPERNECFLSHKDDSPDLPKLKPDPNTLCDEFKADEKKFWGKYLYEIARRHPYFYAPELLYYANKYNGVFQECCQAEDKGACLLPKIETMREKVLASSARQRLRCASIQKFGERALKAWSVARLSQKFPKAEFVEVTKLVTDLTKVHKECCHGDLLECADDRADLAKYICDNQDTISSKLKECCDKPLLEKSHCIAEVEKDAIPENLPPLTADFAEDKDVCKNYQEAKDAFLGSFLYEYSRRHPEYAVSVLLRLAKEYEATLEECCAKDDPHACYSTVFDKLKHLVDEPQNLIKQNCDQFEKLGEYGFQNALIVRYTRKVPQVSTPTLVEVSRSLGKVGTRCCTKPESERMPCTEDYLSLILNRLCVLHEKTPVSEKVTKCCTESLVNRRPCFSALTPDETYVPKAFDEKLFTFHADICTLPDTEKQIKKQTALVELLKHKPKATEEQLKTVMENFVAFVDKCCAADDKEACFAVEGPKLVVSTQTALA

B1: anti-CCR9 antibody clone 115 (murine, from hybridoma #115) (antibody, V domains shown)
VH: QVQLKQSGPELVKPGTSVRVSCTASGYSFTDYIIYWVKQSHGRSLEWIGYIDPNNYNTRYSQKFKGKATLTVDKSSTSAFMHLNSLTSDDSAVYYCARDVYWGQGTTLTVSS
VL: DVVMTQTPLSLTVSLGDQASISCRSSQSLVHSNGKTYLQWYLQKPGQSPKLLIYKVSNRFSGVPDRFSGSGSGTDFTLKISRVEAEDLGVYFCAQSTHVWTFGGGTKLEIKR
notes: Mouse IgG1
[1]
  OD450: 2.53 OD
[2]
  OD450: 1.8 OD
[3]
  OD450: 0.02 OD
[4]
  OD450: 0.02 OD
[5]
  OD450: 2.42 OD
[6]
  OD450: 0.02 OD
[7]
  OD450: 2.05 OD
[8]
  OD450: 0.01 OD
[9]
  OD450: 2.16 OD
[10]
  OD450: 0.02 OD
[11]
  binding result: no binding (tested: 1 ug/mL)
[12]
  binding result: no binding (tested: 1 ug/mL)
[13]
  OD450: 2.73 OD
[14]
  OD450: 2.06 OD
[15]
  OD450: 0.04 OD
[16]
  OD450: 0.02 OD
[17]
  OD450: 0.03 OD
[18]
  OD450: 2.49 OD
[19]
  OD450: 2.58 OD
[20]
  OD450: 0.02 OD
[21]
  OD450: 2.17 OD
[22]
  OD450: 0.03 OD

B2: CCR9_HUM2 scFv (humanized anti-CCR9 scFv, SEQ ID NO: 17 with C-terminal 6xHis tag) (scFv)
scFv: QVQLVQSGAEVKKPGASVKVSCTASGYSFTDYIIYWVKQAHGQSLEWMGYIDPNNYNTRYSQKFQGKVTITVDKSSTSAYMELNSLTSDDTAVYYCARDVYWGQGTTVTVSSGGGGSGGGGSGGGGSGGGGSDVVMTQTPLSLSVTPGQPASISCRSSQSLVHSNGKTYLQWYLQKPGQSPKLLIYKVSNRFSGVPDRFSGSGSGTDFTLKISRVEAEDVGVYFCAQSTHVWTFGGGTKVEIKRAHHHHHH
[23]
  OD450: 1.77 OD
[24]
  OD450: 1.49 OD
[25]
  OD450: 1.23 OD
[26]
  OD450: 1.72 OD
